US20260070983A1

Tests used:
human PD-1 ECD (human) = assay: SPR, 37 °C
human PD-1 (human) = human PD-1 (human) (UniProt Q15116); assay: cell-based or functional assay
human PD-1 (human), sequence (Q15116 25-288): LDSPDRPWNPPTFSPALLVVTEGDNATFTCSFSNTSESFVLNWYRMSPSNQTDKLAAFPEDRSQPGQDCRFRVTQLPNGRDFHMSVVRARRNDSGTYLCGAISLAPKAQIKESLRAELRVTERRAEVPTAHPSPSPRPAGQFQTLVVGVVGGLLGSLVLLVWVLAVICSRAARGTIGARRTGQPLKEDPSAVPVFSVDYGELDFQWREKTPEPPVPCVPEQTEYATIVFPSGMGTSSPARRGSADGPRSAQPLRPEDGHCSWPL

human PD-1 ECD (human), sequence (Q15116 25-170): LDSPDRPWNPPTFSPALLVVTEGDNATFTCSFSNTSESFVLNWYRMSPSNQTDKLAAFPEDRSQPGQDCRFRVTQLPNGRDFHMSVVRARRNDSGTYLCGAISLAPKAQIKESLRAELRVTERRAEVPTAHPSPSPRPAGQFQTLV

Kd (human PD-1 ECD (human)): 2.3 nM
% ADCC Activated T cells, mean (human PD-1 (human)): 3.3%
% ADCC PBMC, mean (human PD-1 (human)): 0.2%
% Inhibition Proliferation, mean (SEB assay) (human PD-1 (human)): 36.9%
% PD-1 Expression Inhibition, mean (SEB assay) (human PD-1 (human)): 50.8%
% T cell Proliferation Inhibition, mean (SEB assay) (human PD-1 (human)): 56.5%
B1: G2 IgG1 mAb (antibody, INN chains, looked up, V domains shown)
VH: QVQLVQSGAEVKKPGASVKVSCKVSGYSLSKYDMSWVRQAPGKGLEWMGIIYTSGYTDYAQKFQGRVTMTEDTSTDTAYMELSSLRSEDTAVYYCATGNPYYTNGFNSWGQGTLVTVSS
VL: DIQMTQSPSSLSASVGDRVTITCQASQSPNNLLAWYQQKPGKAPKLLIYGASDLPSGVPSRFSGSGSGTDFTLTISSLQPEDFATYYCQNNYYVGPVSYAFGGGTKVEIK
modifications: IgG1
